Biological target: T1, recombinant human MASP-2 (consisting of the two complement control regions and the serine protease domain) (human, UniProt O00187 298-686)
T1 construct: domain: the two complement control regions and the serine protease domains; also called rMASP-2; MBL associated serine protease-2
Assay: size-exclusion chromatography (Superose-6) of 125I-labelled rLPI incubated with rMASP-2

T1 sequence (O00187 298-686 limits assumed): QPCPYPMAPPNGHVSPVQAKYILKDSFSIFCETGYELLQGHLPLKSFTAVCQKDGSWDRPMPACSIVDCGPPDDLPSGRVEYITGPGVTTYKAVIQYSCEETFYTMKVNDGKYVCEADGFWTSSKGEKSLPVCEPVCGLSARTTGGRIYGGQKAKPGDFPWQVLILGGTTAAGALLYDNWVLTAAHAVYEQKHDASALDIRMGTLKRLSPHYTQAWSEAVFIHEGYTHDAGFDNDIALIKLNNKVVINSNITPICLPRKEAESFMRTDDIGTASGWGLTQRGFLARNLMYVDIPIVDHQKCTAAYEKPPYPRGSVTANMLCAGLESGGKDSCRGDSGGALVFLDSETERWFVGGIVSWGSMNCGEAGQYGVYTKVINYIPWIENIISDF

B1: recombinant LPI (Lectin Pathway Inhibitor) of Staphylococcus aureus (other)
chain: STSLPTSNEYQNEKLANELKSLLDELNVNELATGSLNTYYKRTIKISGQKAMYALKSKDFKKMSEAKYQLQKIYNEIDEALKSKY
notes: also called rLPI; 125I-LPI
- binding result: binds

— US20090202437A1 (UMC UTRECHT HOLDING B V, published 2009)
